This experiment deals with T1, hen egg-white lysozyme (hen, UniProt P00698 19-147).
T1 construct: mature; also called HEL; target substance
Kind of experiment: SPR (BIAcore X), HEL amine-coupled to CM5 chip, polypeptide at 50, 100 and 200 nM in PBS-T. The protocol:
The strains are cultured at 30° C. for 16 hours in ampicillin (100 μg/ml)-selective LB medium. IPTG is added thereto at the final concentration of 1 mM, followed by additional 16-hour culture to induce protein expression. The bacterial cells collected by centrifugation are subjected to osmotic pressure treatment (the bacterial cells are mixed with 0.5 M sucrose solution and supplemented with a 5-fold volume of pure water) and disrupted by French press to obtain as soluble fractions, the proteins of interest present in the E. coli periplasms. Next, the functional polypeptide chains are purified with HEL columns (HEL is adsorbed and immobilized onto CNBr-activated Sepharose 4B (Code No. 17-0430-01 (Amersham)); the immobilization is performed according to the accompanying protocol). The binding ability between the functional polypeptides and the target substances (HEL) is evaluated by using BIAcore (registered trademark) X (SPR measurement apparatus). […] Next, the molarity of the functional polypeptide chain is adjusted to 50 nM, 100 nM and 200 nM for the first functional polypeptide chain (HyHEL10 scFv-(G4S)3-WinZipA1), the second functional polypeptide chain (D1.3 scFv-(G4S)3-WinZipB1) and a 1:1 mixture of the first and second functional polypeptide chains by using PBS-T (0.1% Tween 20) buffer. […]

T1 sequence (P00698 19-147): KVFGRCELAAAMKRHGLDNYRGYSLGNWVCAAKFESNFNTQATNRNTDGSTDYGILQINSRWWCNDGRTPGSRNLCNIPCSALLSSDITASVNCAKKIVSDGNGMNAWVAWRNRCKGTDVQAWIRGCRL

B1: HyHEL10 scFv-(G4S)3-WinZipA1 (scFv)
scFv: DIQLQESGPSLVKPSQTLSLTCSVTGDSITSDYWSWIRKFPGNRLEYMGYVSYSGSTYYNPSLKSRISITRDTSKNQYYLDLNSVTTEDTATYYCANWDGDYWGQGTLVTVSAGGGGSGGGGSGGGGSDIVLTQSPATLSVTPGNSVSLSCRASQSIGNNLHWYQQKSHESPRLLIKYASQSISGIPSRFSGSGSGTDFTLSINSVETEDFGMYFCQQSNSWPYTFGGGTKLIITAGGGGSGGGGSGGGGSTVAQLEEKVKTLRAQNYELKSRVQRLREQVAQLA
notes: Secreted from E. coli with the pelB signal of a modified pET-20b(+) vector and purified on a HEL column; also called first functional polypeptide chain; first polypeptide chain
B1 returned a Kd of 0.3 nM. This lies in the sub-nanomolar range.

Values taken from patent US20060275811A1 (CANON, published 2006).
